Results from paper PMC6767301, “Polyamines Disrupt the KaiABC Oscillator by Inducing Protein Denaturation” (Molecules, 2019).

B1: KaiB (natural protein, Synechococcus elongatus PCC 7942, UniProt Q79PF5 1-102, looked up)
chain: MSPRKTYILKLYVAGNTPNSVRALKTLKNILEVEFQGVYALKVIDVLKNPQLAEEDKILATPTLAKVLPLPVRRIIGDLSDREKVLIGLDLLYGELQDSDDF
notes: KaiB, Synechococcus elongatus PCC 7942; A few vector residues may remain after PreScission cleavage (surmised); also called Kai proteins; clock proteins; source: E. coli, purified (GSH resin, GST removed by PreScission protease, size-exclusion chromatography)
B2: KaiA (natural protein, Synechococcus elongatus PCC 7942, UniProt Q79PF6 1-284, looked up)
chain: MLSQIAICIWVESTAILQDCQRALSADRYQLQVCESGEMLLEYAQTHRDQIDCLILVAANPSFRAVVQQLCFEGVVVPAIVVGDRDSEDPDEPAKEQLYHSAELHLGIHQLEQLPYQVDAALAEFLRLAPVETMADHIMLMGANHDPELSSQQRDLAQRLQERLGYLGVYYKRDPDRFLRNLPAYESQKLHQAMQTSYREIVLSYFSPNSNLNQSIDNFVNMAFFADVPVTKVVEIHMELMDEFAKKLRVEGRSEDILLDYRLTLIDVIAHLCEMYRRSIPRET
notes: KaiA, Synechococcus elongatus PCC 7942; A few vector residues may remain after PreScission cleavage (surmised); also called Kai proteins; clock proteins; source: E. coli, purified (GSH resin, GST removed by PreScission protease, size-exclusion chromatography)
B3: KaiC (natural protein, Synechococcus elongatus PCC 7942, UniProt Q79PF4 1-519, looked up)
chain: MTSAEMTSPNNNSEHQAIAKMRTMIEGFDDISHGGLPIGRSTLVSGTSGTGKTLFSIQFLYNGIIEFDEPGVFVTFEETPQDIIKNARSFGWDLAKLVDEGKLFILDASPDPEGQEVVGGFDLSALIERINYAIQKYRARRVSIDSVTSVFQQYDASSVVRRELFRLVARLKQIGATTVMTTERIEEYGPIARYGVEEFVSDNVVILRNVLEGERRRRTLEILKLRGTSHMKGEYPFTITDHGINIFPLGAMRLTQRSSNVRVSSGVVRLDEMCGGGFFKDSIILATGATGTGKTLLVSRFVENACANKERAILFAYEESRAQLLRNAYSWGMDFEEMERQNLLKIVCAYPESAGLEDHLQIIKSEINDFKPARIAIDSLSALARGVSNNAFRQFVIGVTGYAKQEEITGLFTNTSDQFMGAHSITDSHISTITDTIILLQYVEIRGEMSRAINVFKMRGSWHDKAIREFMISDKGPDIKDSFRNFERIISGSPTRITVDEKSELSRIVRGVQEKGPES
notes: KaiC, Synechococcus elongatus PCC 7942; The sample is a mixture of phosphorylated and de-phosphorylated KaiC; A few vector residues may remain after PreScission cleavage (surmised); also called Kai proteins; clock proteins; source: E. coli, purified (GSH resin, GST removed by PreScission protease, size-exclusion chromatography)

Biological target: the molecule itself
Experiment: native gel or EMSA; 6% native PAGE of each Kai protein after 4 h of incubation at 30 °C with polyamines (putrescine, spermidine, spermine); 50 mM Tris-HCl pH 8.0, 150 mM NaCl, 5 mM ATP, 5 mM MgCl2, 0.01% Tween-20; total protein 1.0 mg/mL

Protein	binding result
B1	binds
B2	binds
B3	binds
